Reference: publication PMC5484772
Bridges are numbered along the chain shown (N, C = ends). Where no end group is shown, it is not given here.

Assays:
Assay in all cases: SPR; competition in solution, Biacore T200: 796 nM (50 ug/ml) purified DiCo mixed with PfRon2L in serial 1:3 dilutions from 12.5 uM to 5.7 nM, incubated 4 h at room temperature; residual binding of free DiCo read on biotinylated PfRon2L immobilised on a Series S streptavidin chip; buffer control set to 100%
DiCo-Mix = target: DiCo-Mix
[1] = target: PfAMA1 diversity covering variant DiCo1
[2] = target: PfAMA1 diversity covering variant DiCo2
[3] = target: PfAMA1 diversity covering variant DiCo3

B1: PfRon2L (peptide)
peptide: DITQQAKDIGAGPVASCFTTRMSPPQQICLNSVVNTALS
modifications: disulfide 17-29 (inferred)
- PfRon2L concentration at full equilibrium saturation of 796 nM DiCo (DiCo-Mix): 12.5 µM
- PfRon2L concentration for almost full saturation of 796 nM DiCo (DiCo-Mix): > 1000 nM
- PfRon2L concentration at full equilibrium saturation of 796 nM DiCo [1]: 12.5 µM
- PfRon2L concentration for almost full saturation of 796 nM DiCo [1]: > 1000 nM
- PfRon2L concentration at full equilibrium saturation of 796 nM DiCo [2]: 12.5 µM
- PfRon2L concentration for almost full saturation of 796 nM DiCo [2]: > 1000 nM
- PfRon2L concentration at full equilibrium saturation of 796 nM DiCo [3]: 12.5 µM
- PfRon2L concentration for equilibrium saturation of 796 nM DiCo [3]: > 10 µM
